Reference: US12637513B2, “Method of treating cancer by administering an inhibitor of erythropoietin receptor activity comprising either erythropoietin receptor or erythropoietin protein” (ImmunEdge, Inc., priority 2022, dated 2026)

How the values were obtained:
293T/EPOR cells = target: T1, 293T/EPOR cells (Homo sapiens, UniProt P19235); assay: Staining of 293T/EPOR cells with purified antibodies (flow cytometry); type: binding
T1 construct: expressed in transfected cells; host or cells: 293T cells expressing hEPOR
T1 sequence (P19235 25-508): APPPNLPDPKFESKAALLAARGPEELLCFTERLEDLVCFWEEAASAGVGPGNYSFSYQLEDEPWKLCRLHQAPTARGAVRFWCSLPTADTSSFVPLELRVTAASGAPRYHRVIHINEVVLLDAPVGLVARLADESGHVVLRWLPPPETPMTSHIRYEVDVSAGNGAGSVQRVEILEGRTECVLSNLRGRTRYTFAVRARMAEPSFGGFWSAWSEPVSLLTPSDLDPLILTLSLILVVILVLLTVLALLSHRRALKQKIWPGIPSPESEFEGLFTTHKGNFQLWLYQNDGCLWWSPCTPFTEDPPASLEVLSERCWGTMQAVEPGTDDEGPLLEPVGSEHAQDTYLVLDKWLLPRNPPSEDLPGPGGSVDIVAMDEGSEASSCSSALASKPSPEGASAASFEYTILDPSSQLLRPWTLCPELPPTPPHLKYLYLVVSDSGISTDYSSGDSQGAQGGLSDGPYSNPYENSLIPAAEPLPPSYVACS
Method: (§1) The purified antibodies were used to stain the human leukemia UT-7 cells, 293T/EPOR, 293T/CD131, and 293T/EPOR/CD131 cells to confirm antigen binding. The UT-7 cells were maintained in Roswell Park Memorial Institute (RPMI) with 10% Fetal Bovine Serum (FBS) and 5 ng/ml of recombinant human GM-CSF (Peprotech®, Cat #300-03). The 293T cells expressing hEPOR, hCD131, or both were maintained in Dulbecco's Modified Eagle Medium (DMEM) with 10% FBS. 1×10^6 cells/ml were incubated with purified hybridoma clones M2 and M41 at a 3-fold dilution series starting from 20 μg/ml for 30 minutes at 4° C. After washing, the cells were incubated with PE labeled secondary antibody and subjected to flowcytometric analysis. […] The binding profiles of the 293T/EPOR/CD131 cells are similar except the peak MFIs around 1500, half of that of the 293T/EPOR cells (FIG. 29B).

293T/EPOR/CD131 cells = target: T2, 293T/EPOR/CD131 cells (Homo sapiens, UniProt P19235); assay: Staining of 293T/EPOR/CD131 cells with purified antibodies; type: binding
T2 construct: expressed in transfected cells; host or cells: 293T cells, lentiviral transduction
T2 sequence (P19235 25-508): T1 sequence (P19235 25-508)
Method: as §1

293T/CD131 cells = target: T3, 293T/CD131 cells (Homo sapiens, UniProt P32927); assay: Staining of 293T/CD131 cells with purified antibodies; type: binding
T3 construct: expressed in transfected cells; host or cells: 293T cells, lentiviral transduction
T3 sequence (P32927 17-897): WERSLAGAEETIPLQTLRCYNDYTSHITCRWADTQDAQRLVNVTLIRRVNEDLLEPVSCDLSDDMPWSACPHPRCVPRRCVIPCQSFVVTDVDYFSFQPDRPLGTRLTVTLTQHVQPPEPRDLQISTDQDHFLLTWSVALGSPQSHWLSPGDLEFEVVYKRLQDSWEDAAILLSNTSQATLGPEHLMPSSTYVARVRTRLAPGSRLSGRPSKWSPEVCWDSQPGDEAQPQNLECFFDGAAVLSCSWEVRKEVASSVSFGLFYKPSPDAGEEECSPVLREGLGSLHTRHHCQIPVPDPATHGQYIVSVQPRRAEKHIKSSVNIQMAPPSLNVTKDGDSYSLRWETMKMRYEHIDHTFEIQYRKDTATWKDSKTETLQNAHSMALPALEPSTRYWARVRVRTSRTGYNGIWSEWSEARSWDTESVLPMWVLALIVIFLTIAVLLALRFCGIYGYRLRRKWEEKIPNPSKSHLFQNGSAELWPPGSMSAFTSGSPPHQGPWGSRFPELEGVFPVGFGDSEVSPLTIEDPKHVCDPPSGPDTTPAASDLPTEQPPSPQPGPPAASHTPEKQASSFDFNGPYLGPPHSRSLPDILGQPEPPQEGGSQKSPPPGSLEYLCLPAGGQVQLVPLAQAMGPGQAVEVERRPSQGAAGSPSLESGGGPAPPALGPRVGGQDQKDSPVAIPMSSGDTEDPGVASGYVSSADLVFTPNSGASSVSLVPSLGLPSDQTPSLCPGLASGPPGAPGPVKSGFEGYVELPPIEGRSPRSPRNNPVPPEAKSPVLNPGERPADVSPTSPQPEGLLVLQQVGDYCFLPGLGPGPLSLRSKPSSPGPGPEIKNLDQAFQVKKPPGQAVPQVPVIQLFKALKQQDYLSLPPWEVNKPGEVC
Method: as §1

UT-7 cells = target: T4, UT-7 cells (Homo sapiens, UniProt P19235); assay: Staining of UT-7 cells with purified antibodies; type: binding
T4 construct: endogenous in cells; host or cells: UT-7 human leukemia cells
T4 sequence (P19235 25-508): T1 sequence (P19235 25-508)
Method: as §1

EPOR (UT-7 cells) = target: T5, EPOR (UT-7 cells) (Homo sapiens, UniProt P19235); assay: Flow-based phosphorylated Stat5 assay, blocking by anti-EPOR antibodies; type: cell-based; conditions: 20 μg/ml antibody; 0.1 μg/ml recombinant human EPO
T5 construct: endogenous in cells; host or cells: UT-7 human leukemia cells
T5 sequence (P19235 25-508): T1 sequence (P19235 25-508)
Method: EPOR activation leads to phosphorylation of Stat5. A flow-based assay on phosphorylated Stat5 was set up to test the blocking activities of anti-EPOR antibodies. The UT-7 cells were cultured without GM-CSF for overnight before the EPO stimulation. 3×10^6 cells/ml were incubated with 20 μg/ml of anti-EPOR for 15 minutes before stimulation with 0.1 μg/ml of recombinant human EPO (Peprotech®, Cat #100-64) for 10 minutes at 37° C. The cells were fixed immediately with fixation buffer (Cytofix™ buffer; BD Biosciences, Cat #554655) and permeabilized with methanol. After washing, cells were stained with PE labeled anti-Stat5 (BD Biosciences, Cat #612567) and subjected to flow cytometry analysis.

- mean or median fluorescence intensity (MFI) (293T/EPOR cells; 27 ng/ml purified antibody, 293T/EPOR cells): ~100%
- binding to 293T/EPOR cells (293T/EPOR cells; 20 μg/ml purified antibody): robust binding activities
- peak MFI (293T/EPOR/CD131 cells): around 1500
- staining of 293T/CD131 cells (293T/CD131 cells): did not stain
- MFI (UT-7 cells): ~18,000
- blocking of Stat5 phosphorylation (EPOR (UT-7 cells)): complete blocking
B1: EPORab - M2: hybridoma antibody clone, VH/VK in Table 10 (antibody, V domains shown)
VH: QVQLVESGGGLVKPGGSLRLSCAASGFTFSDSYMSWIRQAPGKGLEWVSYISNSGSYMYYADSVKGRFTISRDNAKNSLYLQMNNLRAEDTAVYYCARDKLGIGDYWGQGTLVTVSS
VL: DIQMTQSPSSLSASVGDRVTITCRASQGIRNDLGWFQQKPGKAPKRLIYAASRLQSGVPSRFSGSGSGTEFTLTISSLQPEDFATYCCLQHHTYPPTFGQGTKVEIK
